Laboratory results published in the RNAGym collection of RNA variant scans (doi:10.1073/pnas.2313332121).
Variants at the floor of the assay were thinned out.

B1: TPR 5TU (parent)
chain: GGAUCUUCUCGAUCUAACAAAAAAGACAAAUCUGCCACAAAGCUUGAGAGCAUCUUCGGAUGCAGAGGCGGCAGCCUUCGGUGGCGCGAUAGCGCCAACGUUCUCAACUAUGACACGCAAAACGCGUGCUCCGUUGAAUGGAGUUUAUCAUG

Variants of: B1
Experiment: polymerase ribozyme fitness, log enrichment relative to wild type (log ratio); higher = more active; in vitro selection for triplet polymerase activity
Summary of the method: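 Streptavidin-bead capture of gel-excised extended constructs, followed by RT-PCR, closed a single triplicate in vitro selection round. That round began by annealing PCR-built, transcribed mutant libraries of each subunit of a heterodimeric triplet polymerase ribozyme with a biotinylated primer, the partner subunit and triplets, then incubating them frozen at −7 °C. After Illumina sequencing of inputs and outputs, genotypes needed ≥10 input reads and ≥1 read per output. Fitness is the base-2 logarithm of genotype enrichment over wild-type enrichment, using inverse-variance-weighted replicate averages.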

Variant	polymerase ribozyme fitness (log ratio)
A52G C87U G141A U148A	≤ -4.2
A52G C114A	-3.48
A52U C57A C95A A97U	-2.33
C51U G92U C99A A106G C123G C129U	-2.74
A52C G74C C108U A113G U145G	≤ -4.2
C51U G83C A106G A122U A142U	≤ -4.2
C51U U56A	-0.892
A52C U55A U82C	-2.36
A52G A73U G84A	-2.15
C51U U56A C87A C95U C118A U139C	≤ -4.2
A52U G92U C105A	-3.93
A52C G83C C87U A122G	≤ -4.2
C51U G84A	-0.489
C51U G84U	-1.52
C51U U53A C96G G124U A147U	-3.84
A52U G83A C95U	-3.78
A52C C57U G133U	≤ -4.2
A52G U82A	-0.467
A52G U109G A122U	-1.46
A52U C96U U101G U145G	-4.1
A52C A97U	-1.59

Variant	polymerase ribozyme fitness (log ratio)
A52C G84U	-2.64
A52C G84A	-1.32
C51U C99U	-0.392
A52U G83A U90C A106U U127A	≤ -4.2
A52U C54U G92A A98G A120G U139C U144C U151A	≤ -4.2
C51U G94A	-1.11
C51U G94C	-0.484
A52G A73G C99U G117A	-1.7
A52C G58C A91U A121U	≤ -4.2
A52U C118U U146G	-3.62
C51U C95G C105U U145A	-1.72
A52G G84A C116G	-2.02
A52G A137C	-3.28
C51U G92U	-1.86
A52C C99U	-1.81
A52C C99G	-4.11
A52U A73G U102C	≤ -4.2
A52G C93U C96U G136C A138G U146A	≤ -4.2
A52G U82C G92U C93U G126A	-1.76
A52U C116A	0.243
A52C A60C C79U C93A G152U	≤ -4.2

Variant	polymerase ribozyme fitness (log ratio)
A52G G84A C118U C123G	-1.29
C51U U55A U56A G58C U82A A150C	≤ -4.2
A52G C75A U82A C95A	≤ -4.2
A52U G67U C85A C125G	≤ -4.2
A52G C93G G141C	-3.74
U53A A97G A121U C125A	-1.26
A52U C125U	-1.42
A52C C54U G68A C93U C103A A106G A110U	≤ -4.2
C51U U82A C95U	-1.29
A52C C85U A147G	-3.76
A52U G74A C87A A119U U148G	≤ -4.2
U53A A97C A113G	-3.54
A52U U78C U102C	-2.88
A52G A64U G81A G86C G92A A122C G143C	≤ -4.2
A52C A110G A150G	-3.86
A52G C93G C96U U104C A150G	≤ -4.2
A52G G58C C99U	-0.284
C51U G62A U139G	-0.262
C51U C96U C105U	0.0676
A52G G68U C99G	≤ -4.2
A52C G83U A106G	-2.56

Variant	polymerase ribozyme fitness (log ratio)
A52G G83C C105A	-2.55
A52C G84A C116G A120U	-1.12
A52G U56A	-0.876
A52G A89U G124U G136C	-3.18
A52G U90A A142G	≤ -4.2
A52C U111C A121C C123A U145A A150G	-3.02
C51U U56G A73C C79G C93G A137C	≤ -4.2
A52C U55G G58C G59A A66C	≤ -4.2
C51U U61C C76U G94C A121U C125G U145A	≤ -4.2
C51U U56A A73U G86A	-4.02
A52C G70A U90G A106U	≤ -4.2
A52G C96U U101A A142U A150G	≤ -4.2
A52G A107U	-3.56
A52G A107C	-3.09
A52G U56G C85A C131U A137G	-3.95
C51U U53A U61A A97C G140A G143A	≤ -4.2
A52U G84U G86A A91U A121U	≤ -4.2
A52G G86A	-0.796
U53A A66U	≤ -4.2
U53A A66C	-4.19
A52C A64G C85U U145G	≤ -4.2
